The target of one assay is T1, GYM329 (human).
T1 construct: light chain of GYM329 (humanized, engineered MST1032); Made a molecule only as the ligand of Fc receptors (FcγRs, FcRn); Captured by protein L in the assays; also called anti-latent myostatin sweeping antibody; source: Chinese hamster ovary cells, stably expressed, purified (protein A)
Briefly: SPR; Biacore T200, 25 °C, pH 6.0, PB-P+; antibody captured by protein L immobilised on a CM5 chip; FcRn as analyte, two-fold dilutions 15-240 nmol/L (GYM329) or 250-4000 nmol/L (trastuzumab); steady state model. Conditions: both partners purified.

Assay [1] deals with T2, reference wild type human IgG1 (with trastuzumab Fab) (human).
T2 construct: heavy variable domain of trastuzumab; wild type human IgG1 heavy constant region; light chain of trastuzumab; Ligand of FcRn here; The supplement says that recombinant antibodies other than GYM329 and GYM-cyFc were expressed transiently in FreeStyle293-F and purified with protein A
The description is as above. Conditions: both partners purified.

Broadly, the Kd is the constant that tells how readily two partners part at equilibrium. Read a high Kd as a looser complex.

T1 sequence (heavy, as listed by the source, chain 1 of 2): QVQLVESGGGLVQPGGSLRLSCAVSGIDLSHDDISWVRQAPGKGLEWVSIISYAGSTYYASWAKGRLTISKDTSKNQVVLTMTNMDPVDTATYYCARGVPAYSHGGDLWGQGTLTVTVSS
T1 sequence (light, as listed by the source, chain 2 of 2): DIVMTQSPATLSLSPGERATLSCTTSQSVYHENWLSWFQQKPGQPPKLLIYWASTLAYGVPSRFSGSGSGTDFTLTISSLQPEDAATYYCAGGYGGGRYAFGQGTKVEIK

B1: cynomolgus monkey FcRn (receptor)
chain 1: AESHLSLLYHLTAVSSPAPGTPAFWVSGWLGPQQYLSYDSLRGQAEPCGAWVWENQVSWYWEKETTDLRIKEKLFLEAFKALGGKGPYTLQGLLGCELSPDNTSVPTAKFALNGEEFMNFDLKQGTWGGDWPEALAISQRWQQQDKAANKELTFLLFSCPHRLREHLERGRGNLEWKEPPSMRLKARPGNPGFSVLTCSAFSFYPPELQLRFLRNGMAAGTGQGDFGPNSDGSFHASSSLTVKSGDEHHYCCIVQHAGLAQPLRVELETPAKSS
chain 2: IQRTPKIQVYSRHPPENGKPNFLNCYVSGFHPSDIEVDLLKNGEKMGKVEHSDLSFSKDWSFYLLYYTEFTPNEKDEYACRVNHVTLSGPRTVKWDRDM
modifications: limits not given; soluble ectodomain taken from the UniProt extracellular feature, with beta-2-microglobulin as obligate subunit by convention
Regarding B1, the Kd with GYM329 was determined as 104 nM.

B2: cynomolgus monkey FcRn (receptor)
chain 1: AESHLSLLYHLTAVSSPAPGTPAFWVSGWLGPQQYLSYDSLRGQAEPCGAWVWENQVSWYWEKETTDLRIKEKLFLEAFKALGGKGPYTLQGLLGCELSPDNTSVPTAKFALNGEEFMNFDLKQGTWGGDWPEALAISQRWQQQDKAANKELTFLLFSCPHRLREHLERGRGNLEWKEPPSMRLKARPGNPGFSVLTCSAFSFYPPELQLRFLRNGMAAGTGQGDFGPNSDGSFHASSSLTVKSGDEHHYCCIVQHAGLAQPLRVELETPAKSS
chain 2: IQRTPKIQVYSRHPPENGKPNFLNCYVSGFHPSDIEVDLLKNGEKMGKVEHSDLSFSKDWSFYLLYYTEFTPNEKDEYACRVNHVTLSGPRTVKWDRDM
As for B2, binding in assay [1] was characterised by a dissociation constant (Kd) of 1530 nM.

(Values after PMC7835227 (Scientific Reports, 2021).)
